Results on 30 molecules are retold here after patent publication US20260070940A1 (Hoffmann-La Roche, published 2026).

As usually defined, the Kd is the equilibrium constant for the complex coming apart. A higher Kd goes with weaker binding. Broadly, the koff is the first-order rate constant of dissociation.

Numbering of substitutions follows the chain as printed.

The labels stand for the following.
T1: full-length human CEA with N-terminal SNAP tag on transfected HEK293 cells (human, UniProt P06731 35-685, SNAP tag labelled with terbium)
T1 construct: whole, on cells; also called hu CEA-SNAP; CEACAM5
T1 sequence (looked up): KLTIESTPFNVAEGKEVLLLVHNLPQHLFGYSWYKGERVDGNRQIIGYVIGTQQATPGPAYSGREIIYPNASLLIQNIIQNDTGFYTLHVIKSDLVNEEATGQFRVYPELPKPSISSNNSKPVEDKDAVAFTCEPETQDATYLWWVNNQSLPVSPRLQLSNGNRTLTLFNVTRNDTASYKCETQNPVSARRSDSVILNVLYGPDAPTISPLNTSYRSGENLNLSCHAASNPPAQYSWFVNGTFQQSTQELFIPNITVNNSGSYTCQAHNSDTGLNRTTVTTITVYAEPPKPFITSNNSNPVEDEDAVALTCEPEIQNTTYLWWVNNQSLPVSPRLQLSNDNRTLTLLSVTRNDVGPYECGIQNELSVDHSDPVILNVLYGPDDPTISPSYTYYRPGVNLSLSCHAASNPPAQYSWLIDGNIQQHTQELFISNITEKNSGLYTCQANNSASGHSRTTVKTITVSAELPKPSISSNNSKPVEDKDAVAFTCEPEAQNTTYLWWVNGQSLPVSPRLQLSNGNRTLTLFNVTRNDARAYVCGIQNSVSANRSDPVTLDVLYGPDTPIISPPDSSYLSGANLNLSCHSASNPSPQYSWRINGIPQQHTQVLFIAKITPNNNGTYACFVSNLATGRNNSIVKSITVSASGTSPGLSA

B1: anti-CEA aVH P118.061 (VHH)
VHH: EVQLVESGGGLVQPGGSLRLSCAASGFNIKDTCIGWVRRAPGKEEELVANICPYHGYTRYADSVKGRFTISADTSKNTAYLQMNSLRAEDTAVYYCAIVSYVDEYYNYWGQGTTVTVSS
B2: anti-CEA aVH P127.014 (VHH)
VHH: B1 VHH with N50A, P53T, H55K, Y57T, V99Y, Y101H, V102Y, D103Y, E104D
B3: anti-CEA aVH P124.021 (VHH)
VHH: B1 VHH with N50A, H55K, I98N, S100A, V102S, D103G, E104G, Y105H
B4: anti-CEA aVH P124.034 (VHH)
VHH: B1 VHH with N50A, H55I, Y57E, I98T, S100A, Y101R, V102K, D103Y, E104N, Y105Q
B5: anti-CEA aVH P127.002 (VHH)
VHH: B1 VHH with N50S, P53K, H55T, Y57K, S100A, Y101S, V102G, E104G, Y105W
B6: anti-CD28 aVH P023.017 (VHH)
VHH: EVQLVESGGGLVQPGGSLRLSCAASGFNIKDTCIGWVRRAPGKEEELVARICGEYGSTRYADSVKGRFTISADTSKNTAYLQMNSLRAEDTAVYYCAAQPRYYDVYDYWGQGTTVTVSS
B7: anti-CD28 aVH P023.057 (VHH)
VHH: B6 VHH with R50E, E54R, Q99E, P100H, Y103P, D104G, V105Q, D107T
B8: anti-CD28 aVH P020.077 (VHH)
VHH: EVQLVESGGGLVQPGGSLRLSCAASGFNIKDTCIGWVRRAPGKEEELVAGICQHYGDTRYADSVKGRFTISADTSKNTAYLQMNSLRAEDTAVYYCATDDWIYPGYIYWGQGTTVTVSS
B9: anti-CD28 aVH P020.035 (VHH)
VHH: EVQLVESGGGLVQPGGSLRLSCAASGFNIKDTCIGWVRRAPGKEEELVADICGDDGHTRYADSVKGRFTISADTSKNTAYLQMNSLRAEDTAVYYCAYYSGSYYEYWGQGTTVTVSS
B10: anti-CD28 aVH P023.001 (VHH)
VHH: EVQLVESGGGLVQPGGSLRLSCAASGFNIKDTCIGWVRRAPGKEEELVAYICPSHGYTRYADSVKGRFTISADTSKNTAYLQMNSLRAEDTAVYYCADHKNTQWGYAYWGQGTTVTVSS
B11: anti-CD28 aVH P023.039 (VHH)
VHH: EVQLVESGGGLVQPGGSLRLSCAASGFNIKDTCIGWVRRAPGKEEELVADICIKHGYTRYADSVKGRFTISADTSKNTAYLQMNSLRAEDTAVYYCADWTQSGYHYGYWGQGTTVTVSS
B12: anti-CD28 aVH P020.057 (VHH)
VHH: EVQLVESGGGLVQPGGSLRLSCAASGFNIKDTCIGWVRRAPGKEEELVAAICYTQGDTRYADSVKGRFTISADTSKNTAYLQMNSLRAEDTAVYYCAASQYDSYYTYWGQGTTVTVSS
B13: anti-CD28 aVH P020.051 (VHH)
VHH: B12 VHH with Y53K, S99A, Q100N, Y104P
B14: anti-CD28 aVH P020.029 (VHH)
VHH: B12 VHH with A50G, Y53E, T54A, Q55G, A98E, Y101Q, D102G, T106S
B15: anti-CD28 aVH P020.017 (VHH)
VHH: B12 VHH with Y53P, T54D, Q55E, S99A, Q100K, S103D, Y104R, T106N
B16: anti-CD28 aVH P020.042 (VHH)
VHH: B12 VHH with Y53R, T54E, Q55A, S99A, Q100D, Y104T, T106I
B17: anti-CD28 aVH P020.027 (VHH)
VHH: B12 VHH with A50G, Y53R, T54D, Q55G, Q100D, T106A
B18: anti-CD28 aVH P020.034 (VHH)
VHH: B12 VHH with Y53H, T54H, Q55G, A98E, Y101V, T106S
B19: anti-CD28 aVH P020.023 (VHH)
VHH: B12 VHH with V37A, Y53D, T54Y, Q55N, D57H, A98Q, Q100D, Y104K, T106S
B20: anti-CD28 aVH P020.063 (VHH)
VHH: B12 VHH with Y53P, T54E, Q55Y, A98S, Q100D, Y104A, T106S
B21: anti-CD28 aVH P020.065 (VHH)
VHH: B12 VHH with A50G, Q55Y, A98S, Q100E, Y101V, T106S
B22: anti-CD28 aVH P020.037 (VHH)
VHH: B12 VHH with Y53D, T54S, Q55G, Q100D, D102N, Y104H, T106S
B23: anti-CD28 aVH P020.010 (VHH)
VHH: EVQLVESGGGLVQPGGSLRLSCAASGFNIKDTCIGWVRRAPGKEEELVAYICEGNGYTRYADSVKGRFTISADTSKNTAYLQMNSLRAEDTAVYYCAAEGKETYYYQYWGQGTTVTVSS
B24: anti-CD28 aVH P019.020 (VHH)
VHH: EVQLVESGGGLVQPGGSLRLSCAASGFNIKDSSTYIGWVRRAPGKEEELVAYIYCTQGETRYADSVKGRFTISCDTSKNTAYLQMNSLRAEDTAVYYCASWGGNYPYYYWGQGTTVTVSS
B25: anti-FAP aVH P034.066 (VHH)
VHH: EVQLVESGGGLVQPGGSLRLSCAASGFNIKDTCIGWVRRAPGKEEELVANICGITGYTRYADSVKGRFTISADTSKNTAYLQMNSLRAEDTAVYYCAKSGGPKGYTYWGQGTTVTVSS
B26: anti-FAP aVH P031.033 (VHH)
VHH: B25 VHH with I54Q, T55Y, Y57Q, P102R, K103H, T106E
B27: anti-FAP aVH P014.087 (VHH)
VHH: EVQLVESGGGLVQPGGSLRLSCAASGFNIKDTCIGWVRRAPGKEEELVANICGHIGSTRYADSVKGRFTISADTSKNTAYLQMNSLRAEDTAVYYCANSYTYSYKYWGQGTTVTVSS
B28: anti-FAP aVH P012.090 (VHH)
VHH: EVQLVESGGGLVQPGGSLRLSCAASSFNIKDTYIGWVRRAPGKEEELVAKIFRCSDGRTRYADSVKGRFTISCDTSKNTAYLQMNSLRAEDTAVYYCANIYKTHYTYWGQGTTVTVSS
B29: anti-FAP aVH P011.064 (VHH)
VHH: EVQLVESGGGLVQPGGSLRLSCAASGFNIKDTCIGWVRRAPGKEEELVANICITDGKTRYADSVKGRFTISADTSKNTAYLQMNSLRAEDTAVYYCAYYSKYIGYRYWGQGTTVTVSS
B30: anti-FAP aVH P011.080 (VHH)
VHH: B29 VHH with I53Q, T54S, D55G, K57Y, Y98R, S100H, Y102G, I103V, R106Q
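For result in this document: SPR at 25 °C with biotinylated human or murine FAP captured via neutravidin, aVH-containing bacterial supernatants diluted 1:3 as analyte, 600 s dissociation, blank supernatant without aVH as reference.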

For the first assay, the target named is T1, full-length human CEA with N-terminal …. The assay can be described thus: FRET (TagLite) on hu CEA-SNAP cells.
In turn, B1 registered a Kd of 14.7 nM.

For the molecule B2, the Kd stood at 9.1 nM.

As to B3, the Kd came to 12.3 nM. In turn, B4 came in with a Kd of 65.4 nM.

Molecule B5 yielded a Kd of 399 nM.

Another assay deals with T2, hu CD28-Fc (Fc-knob-avi and Fc-hole chains), biotinylated (human, biotin on the avi tag).
T2 construct: also called CD28-Fc-avi
The assay can be described thus: SPR, bacterial supernatant. (SPR reads the build-up and loss of mass on a sensor chip optically.)
In turn, B6 came in with a koff of 0.0175 s⁻¹. The same measure, in the same setting: in the case of B7 it was 0.0777 s⁻¹; in that of B8, 0.0117 s⁻¹. Same read-out and setting: in the case of B9 it was 0.00134 s⁻¹; in that of B10, 0.0321 s⁻¹.

B11 yielded a koff of 0.0176 s⁻¹. On the same count and under the same terms, as for B12, the figure is 0.0174 s⁻¹; as for B13, 0.0135 s⁻¹. B14 showed a koff of 0.00151 s⁻¹. Same read-out and setting: in the case of B15 it was 0.0109 s⁻¹. Same read-out and setting: in the case of B16 it was 0.0144 s⁻¹; in that of B17, 0.00145 s⁻¹. As for B18, the koff stood at 0.00216 s⁻¹. Same read-out and setting: as for B19, the figure is 0.0033 s⁻¹. The molecule B20 showed a koff of 0.018 s⁻¹. The same measure, in the same setting: in the case of B21 it was 0.00885 s⁻¹; in that of B22, 0.0131 s⁻¹. On the same count and under the same terms, in the case of B23 it was 0.00068 s⁻¹; in that of B24, 0.0206 s⁻¹.

The next assay deals with T3, human FAP avi his, biotinylated (human, UniProt Q12884 27-759, biotin on the avi-tag).
T3 construct: also called huFAP
The assay can be described thus: SPR, bacterial supernatant.
Take B25: the koff amounted to 0.000215 s⁻¹. With B26, the binding result is reported as “no binding”.

A further assay concerns the target T4, murine FAP avi his, biotinylated (murine, UniProt P97321 27-761, biotin on the avi-tag).
T4 construct: also called muFAP; mu FAP
The assay can be described thus: SPR, bacterial supernatant.
Consider B27, for which the binding result is “no binding”. On the same count and under the same terms, in the case of B28 it was “no binding”.

The molecule B25 displayed a koff of 0.00253 s⁻¹. Same read-out and setting: in the case of B26 it was 0.0106 s⁻¹. As for B29, the binding result is on record as “no binding”. On the same count and under the same terms, as for B30, the entry is “no binding”.
